Assay results taken from US20260008852A1 (CRYSTAL BIOSCIENCE, published 2026).
Changes are numbered by the printed parent chain.

T1: his-tagged B7-H3 (UniProt Q5ZPR3-2 29-245, limits assumed)
T1 construct: also called CD276; not shown: His tag
T1 sequence (looked up): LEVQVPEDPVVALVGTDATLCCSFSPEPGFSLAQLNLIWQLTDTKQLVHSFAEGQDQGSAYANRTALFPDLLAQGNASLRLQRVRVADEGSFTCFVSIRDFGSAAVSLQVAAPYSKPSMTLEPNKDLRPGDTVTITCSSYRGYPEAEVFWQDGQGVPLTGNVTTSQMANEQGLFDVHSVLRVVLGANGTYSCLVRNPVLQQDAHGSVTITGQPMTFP

B1: 40633p1.1.D11 scFv-Fc (scFv, V domains shown)
VH: EVQLLESGGGLVQPGGSLRLSCAASGFTFRSYAMSWVRQAPGKGLEWVAYIGSSGGTTYYADSVKGRFTISRDNSKNTLYLQMNSLRAEDTAVYYCVKESYYYMDVWGQGTTVTVSS
VL: QSVLTQPPSASGTPGQRVTISCSATISNIDINRVSWYQQLPGTAPKLLIFNSQRPSGVPDRFSGSKSGTSASLAISGLQSEDEADYYCATWDDSLNSWVFGGGTKLTVL
notes: Tested as scFv-Fc supernatant
B2: 40633p1.1.B12 scFv-Fc (scFv, V domains shown)
VH: EVQLLESGGGLLQPGGSLRLSCAASGFSFSSYGMHWVRQAPGKGLEWVAAINSDGSRIYYADSVKGRFTISRDNSKNTLYLQMNSLRAEDTAVYYCTKYYYHYAMDVWGQGTTVTVSS
VL: QSVLTQPPSASGTPGQRVTISCSGSRSDIGATTVNWYQQLPGTAPKLLTYQSHLRPSGVPDRFSGSKSGTSASLAISGLQSEDEADYYCASWDASLNTWVFGGGTKLTVL
B3: 40633p1.2.E1 scFv-Fc (scFv, V domains shown)
VH: EVQLLESGRGLVQPGGSLRLSCAASGFTVSYYGMSWVRQAPGKGLEWVSVIKQDGSEEYYADSVKGRFTISRDNSKNTLYLQMNSLRAEDTAVYYCARHWNDYSNGMNVWGQGTTVTVSS
VL: QSVLTQPPSASGTPGQRVTISCSGSTSNVGDRYVYWYQQLPGTAPKLLIYLDDQRPSGVPDRFSGSKSGTSASLAISGLQSEDEADYYCASWDASLNGWVFGGGTKLTVL
notes: Tested as scFv-Fc supernatant
B4: 40633p1.1.B3 scFv-Fc (scFv, V domains shown)
VH: B3 VH with R9G, V50A, E58K, G106A
VL: B3 VL with V29I, D31R, R32E, Y33S, L51T, D52I, A90G, S91T, A94D, G98A
notes: Tested as scFv-Fc supernatant
B5: 40633p1.1.E3 scFv-Fc (scFv, V domains shown)
VH: B3 VH with R9G, V50A, E58K, G106A
VL: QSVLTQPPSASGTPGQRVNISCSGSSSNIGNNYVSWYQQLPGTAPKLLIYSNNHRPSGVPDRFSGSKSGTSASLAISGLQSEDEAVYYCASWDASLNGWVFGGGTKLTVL
notes: Tested as scFv-Fc supernatant
B6: 40633p1.2.F3 scFv-Fc (scFv, V domains shown)
VH: B3 VH with R9G
VL: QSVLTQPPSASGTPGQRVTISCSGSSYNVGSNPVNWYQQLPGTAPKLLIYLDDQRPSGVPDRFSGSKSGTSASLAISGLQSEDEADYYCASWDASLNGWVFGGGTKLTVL
notes: Tested as scFv-Fc supernatant
B7: 40633p1.1.F2 scFv-Fc (scFv, V domains shown)
VH: EVQLLESGGGLVQPGGSLRLSCVASGLTFNGFAMTWVRQAPGKGLEWVSGISWNSGSIYYADSVKGRFTISRDNSKNTVYLQMSSLRAEDTAIYYCAKNWNDYYNSMDVWGQGTTVTVSS
VL: QSVLTQPPSASGTPGQRVTISCSGSRSNIGTKYVYWYQQFPGTAPKLLIYTTDRRPSGVPDRFSGSKSGTSASLAISGLQSEDEADYYCSAWDDRLNAWVFGGGTKLTVL
notes: Tested as scFv-Fc supernatant
B8: 40633p1.1.E6 scFv-Fc (scFv, V domains shown)
VH: EVQLLESGGGLVQPGGSLRLSCAASGLTFSSYAMNWVRQAPGKGLEWVAGIGGSGSSTYHTDSVKGRFTISRDNSKNTLYLQMSSLRAEDAAVYYCAKEDHWSGGMDVWGQGTTVTVSS
VL: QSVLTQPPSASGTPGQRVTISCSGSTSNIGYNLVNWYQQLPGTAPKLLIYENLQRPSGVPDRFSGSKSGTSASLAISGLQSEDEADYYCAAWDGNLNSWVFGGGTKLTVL
B9: 40633p1.1.E4 scFv-Fc (scFv, V domains shown)
VH: EVQLLESGGGLVQPGGSLRLSCAASGFTFSSYWMSWVRQAPGKGLEWVSGISSSGSATYYADSVKGRFTISRDNSKNTLYLQMNSLRAEDTAVYYCARWNDYDIMDVWGQGTTVTVSS
VL: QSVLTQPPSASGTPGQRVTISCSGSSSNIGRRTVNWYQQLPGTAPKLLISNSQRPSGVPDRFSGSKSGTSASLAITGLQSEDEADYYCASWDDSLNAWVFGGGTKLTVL
notes: Tested as scFv-Fc supernatant
B10: 40633p1.1.C11 scFv-Fc (scFv, V domains shown)
VH: B9 VH with S49A, S52N, S53R, S54N, S56G, A57T
VL: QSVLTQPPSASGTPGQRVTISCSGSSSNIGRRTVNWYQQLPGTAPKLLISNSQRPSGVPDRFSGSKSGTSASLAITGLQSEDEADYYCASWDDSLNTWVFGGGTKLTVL
notes: Tested as scFv-Fc supernatant
B11: 40633p1.2.D7 scFv-Fc (scFv, V domains shown)
VH: B9 VH with G10S
VL: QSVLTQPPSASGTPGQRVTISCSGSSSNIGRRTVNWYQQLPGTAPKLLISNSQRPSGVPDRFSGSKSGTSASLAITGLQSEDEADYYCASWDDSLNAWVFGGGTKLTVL
notes: Tested as scFv-Fc supernatant

Molecular target: T1, his-tagged B7-H3
Assay: SPR, Carterra LSA; binder captured by anti-human Fc, his-tagged B7-H3 injected
Experimental: Binding affinities of anti-B7-H3 antibodies to B7-H3 were measured by Surface Plasmon Resonance (SPR) on a Carterra LSA instrument. Goat anti-human Fc antibody was amine coupled to a HC30M chip. ScFv-Fc supernatants were diluted 30-fold with HBSTE and were captured by the anti-human Fc coupled HC30M chip. A 1:2 dilution series of his-tagged B7-H3, starting at 400 nM, was injected onto the chip for binding. Data was analyzed using the Carterra TM Kinetics software.

| Kd | kon | koff | Binder |
| --- | --- | --- | --- |
| 13.2 nM | 277000 M⁻¹ s⁻¹ |  | B1 |
| 20.2 nM | 349000 M⁻¹ s⁻¹ | 0.01 s⁻¹ | B2 |
| 8 nM | 124000 M⁻¹ s⁻¹ |  | B3 |
| 6.42 nM | 360000 M⁻¹ s⁻¹ |  | B4 |
| > 400 nM | 2030 M⁻¹ s⁻¹ | 0.65 s⁻¹ | B5 |
| 27.6 nM | 307000 M⁻¹ s⁻¹ | 0.01 s⁻¹ | B6 |
| 298 nM | 108000 M⁻¹ s⁻¹ | 0.03 s⁻¹ | B7 |
| 142 nM | 6880 M⁻¹ s⁻¹ |  | B8 |
| 3.95 nM | 523000 M⁻¹ s⁻¹ |  | B9 |
| 1.03 nM | 481000 M⁻¹ s⁻¹ |  | B10 |
| 5.69 nM | 402000 M⁻¹ s⁻¹ |  | B11 |
